Substrate in series [1]: NC(=O)C1=CN([C@@H]2O[C@H](COP(=O)(O)OP(=O)(O)OC[C@H]3O[C@@H](n4cnc5c(N)ncnc54)[C@H](OP(=O)(O)O)[C@@H]3O)[C@@H](O)[C@H]2O)C=CC1
Put plainly: purified protein. Format: biochemical, Thermobifida fusca. Particulars: 50 mM phosphate pH 8.0, 1 µM enzyme, NADPH varied 5.0-500 µM, varied: cofactor.

Substrate in series [2]: c1ccc2[nH]ccc2c1
Put plainly: purified protein. To be noted: 50 mM phosphate pH 8.0, 1 µM enzyme, indole varied 0.05-1 mM, NADPH fixed at saturating concentration. Format: biochemical, Thermobifida fusca.

Where [3] appears, read: indole fixed at saturating concentration (wild type does not use indole; NADPH depletion control).
[4] abbreviates: indole fixed at saturating concentration.

Positions count from the first letter of the chain named. Names and notes keep the numbering of the source.

B1: PAMO (phenylacetone monooxygenase; PAMOWT, PAMOHPCD, PAMOHPED) (Thermobifida fusca YX) (protein)
chain: MAGQTTVDSRRQPPEEVDVLVVGAGFSGLYALYRLRELGRSVHVIETAGDVGGVWYWNRYPGARCDIESIEYCYSFSEEVLQEWNWTERYASQPEILRYINFVADKFDLRSGITFHTTVTAAAFDEATNTWTVDTNHGDRIRARYLIMASGQLSVPQLPNFPGLKDFAGNLYHTGNWPHEPVDFSGQRVGVIGTGSSGIQVSPQIAKQAAELFVFQRTPHFAVPARNAPLDPEFLADLKKRYAEFREESRNTPGGTHRYQGPKSALEVSDEELVETLERYWQEGGPDILAAYRDILRDRDANERVAEFIRNKIRNTVRDPEVAERLVPKGYPFGTKRLILEIDYYEMFNRDNVHLVDTLSAPIETITPRGVRTSEREYELDSLVLATGFDALTGALFKIDIRGVGNVALKEKWAAGPRTYLGLSTAGFPNLFFIAGPGSPSALSNMLVSIEQHVEWVTDHIAYMFKNGLTRSEAVLEKEDEWVEHVNEIADETLYPMTASWYTGANVPGKPRVFMLYVGGFHRYRQICDEVAAKGYEGFVLT
B1: in series [1] (setting [3]), the Km is listed as 0.9 µM, the kcat worked out at 4.8 s⁻¹ and the kcat/Km amounted to 5.2e+06 M⁻¹ s⁻¹.

B2: PAMO (phenylacetone monooxygenase; PAMOWT, PAMOHPCD, PAMOHPED) (Thermobifida fusca YX; A442P/L443E/P440F/P94D/Q93N/S441H/S444D) (protein)
chain: B1 chain with Q93N, P94D, P440F, S441H, A442P, L443E, S444D
Take B2: in series [1] (setting [4]), the Km was 4.4 µM, the kcat amounted to 1.9 s⁻¹ and the kcat/Km is 430000 M⁻¹ s⁻¹. Further, in series [2], the Km is 109.0 µM, the kcat is 1.7 s⁻¹ and the kcat/Km amounted to 16000 M⁻¹ s⁻¹.

B3: PAMO (phenylacetone monooxygenase; PAMOWT, PAMOHPCD, PAMOHPED) (Thermobifida fusca YX; A442P/L443C/P440F/P94D/Q93N/S441H/S444D) (protein)
chain: B1 chain with Q93N, P94D, P440F, S441H, A442P, L443C, S444D
Consider B3, for which, in series [1] (setting [4]), the Km came out at 7.6 µM, the kcat came to 6.8 s⁻¹ and the kcat/Km was determined as 900000 M⁻¹ s⁻¹. For the same protein, in series [2], the Km turned out to be 58.2 µM, the kcat was 5.4 s⁻¹ and the kcat/Km worked out at 93000 M⁻¹ s⁻¹.

Values taken from paper PMC9604523, “Discovery of New Phenylacetone Monooxygenase Variants for the Development of Substituted Indigoids through Biocatalysis” (International Journal of Molecular Sciences, 2022).
